“Also recorded” adds a separate entry of the source. Each block holds one molecule with its values, some of them ahead of it.
Key:
[1] = tested on: CCR4 positive and negative cells; assay: CCR4 expression of CCR4 positive and negative cells exposed to cytokines; format: cell-based; conditions: cytokines of the cervical microenvironment
Source text: CCR4 positive and negative cells were exposed to a number of cytokines (TNF-α, TGF-β, IFN-γ, IL-4 and IL-10) known to be present in the cervical microenvironment and for which receptors were likely to be present on the tumour cells.

[2] = tested on: C41 cervical cancer cell line; assay: CCR4 expression on C41 cells after cytokine stimulation (FACS); format: cell-based, human; conditions: 20 ng/ml, 24 h, versus unstimulated cells
Method: Dashed line: isotype control; grey line CCR4 expression; bold line; CCR4 expression after cytokine stimulation.
The most common cytokines present in a tumour are IL-10, TGF-β, FGF, TNF-α. The C41 cervical cancer cell line was stimulated in culture with different cytokines (IL-10, TNF-α, TGF-β, FGF; 20 ng/ml) for 24 h. The expression of CCR4 was then determined by FACS analysis.

CCR4 = molecular target: T1, CCR4 (Homo sapiens, UniProt P51679); assay: CCR4 expression/internalization on C-41 cells after ligand stimulation (FACS); format: cell-based; conditions: stimulation with 100 ng/ml ligand
T1 construct: The cell line C-41 expressed cell surface CCR4 in a constitutive manner; host or cells: C-41 cervical cancer cell line
T1 sequence (P51679 1-360): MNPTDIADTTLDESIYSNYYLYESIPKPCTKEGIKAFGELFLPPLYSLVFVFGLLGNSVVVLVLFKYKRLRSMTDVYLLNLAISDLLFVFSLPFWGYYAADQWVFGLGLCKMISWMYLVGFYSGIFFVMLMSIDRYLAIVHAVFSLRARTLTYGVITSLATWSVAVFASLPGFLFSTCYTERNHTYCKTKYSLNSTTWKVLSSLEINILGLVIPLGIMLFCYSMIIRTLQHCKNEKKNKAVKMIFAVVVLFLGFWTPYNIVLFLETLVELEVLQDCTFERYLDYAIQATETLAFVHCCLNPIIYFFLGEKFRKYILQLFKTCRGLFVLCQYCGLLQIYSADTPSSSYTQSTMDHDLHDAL
Method: Values are the mean±SD of 10 determinations,*P <0.05, **P<0.01.
(§1) The cervical cancer cell line C-41 (ATCC, Rockville, Md, USA) was cultured in DMEM medium supplemented with 10% FCS. […] Proliferation and migration were assessed using methods described previously.
To investigate the biological significance of CCR4 expression on cervical cancer cells a number of cervical cancer cell lines (CaSki, Me180, Hela-Ohio, Hela-S3, Siha, C33A, C41-1) were screened for CCR4 expression.

[3] = tested on: C-41 cervical cancer cell line; assay: C-41 growth/proliferation under suboptimal conditions after ligand stimulation; format: cell-based, human; conditions: 6 days
[4] = tested on: C-41 cervical cancer cell line; assay: trans-well migration assay of C-41 cells towards CCR4 ligands; format: cell-based, human; conditions: for chemotactic response of C-41 cells: trans-well migration assay
Method: as §1
To investigate the biological significance of CCR4 expression on cervical cancer cells a number of cervical cancer cell lines (CaSki, Me180, Hela-Ohio, Hela-S3, Siha, C33A, C41-1) were screened for CCR4 expression. The cell line C-41 expressed cell surface CCR4 in a constitutive manner (FIG. 6A). Using FACS analysis it was shown that C-41 cells expressed cell surface CCR4. […] Following stimulation with 100 ng/ml CCL22, cell surface CCR4 protein was internalized on C-41 cells after 2 hours and returned back to the surface after 3 hours (FIG. 6B).

Molecule: TGF-β
influence on CCR4 expression [1]: None of these influenced CCR4 expression
CCR4 expression on C41 cells after cytokine stimulation [2]: upregulated in terms of percentage of positive cells

Molecule: TNF-α
influence on CCR4 expression [1]: None of these influenced CCR4 expression

cell surface CCR4 returned back to the surface after (CCR4): 3 h
B1: CCL17: chemokine ligand of CCR4 (PeproTech) used to stimulate C-41 cells (protein, UniProt Q92583 24-94, looked up)
C-C motif chemokine 17: ARGTNVGRECCLEYFKGAIPLRKLKTWYQTSEDCSRDAIVFVTVQGRAICSDPNNKRVKNAVKYLQSLERS
C-41 cell growth / proliferation ([3]; 1 ng/ml): not
C-41 cell growth / proliferation ([3]; 10 ng/ml): significant growth increase; also recorded: increased proliferation
C-41 cell growth / proliferation ([3]; 100 ng/ml): significant growth increase; also recorded: increased proliferation
migration of C-41 cells ([4]; 10 ng/ml): induced significant migration
migration of C-41 cells ([4]; 100 ng/ml): induced significant migration
migration of C-41 cells ([4]; 1000 ng/ml): induced significant migration
chemotactic response of C-41 cells [4]: typical bell-shaped chemotactic response

B2: IL-4: cytokine known to be present in the cervical microenvironment (protein, UniProt P05112 25-153, looked up)
Interleukin-4: HKCDITLQEIIKTLNSLTEQKTLCTELTVTDIFAASKNTTEKETFCRAATVLRQFYSHHEKDTRCLGATAQQFHRHKQLIRFLKRLDRNLWGLAGLNSCPVKEANQSTLENFLERLKTIMREKYSKCSS
influence on CCR4 expression [1]: None of these influenced CCR4 expression

cell surface CCR4 protein internalized on C-41 cells after (CCR4): 2 h
cell surface CCR4 returned back to the surface after (CCR4): 3 h
B3: CCL22: chemokine ligand of CCR4 (PeproTech) used to stimulate C-41 cells (protein, UniProt O00626 25-93, looked up)
C-C motif chemokine 22: GPYGANMEDSVCCRDYVRYRLPLRVVKHFYWTSDSCPRPGVVLLTFRDKEICADPRVPWVKMILNKLSQ
C-41 cell growth / proliferation ([3]; 1 ng/ml): significant increased growth; also recorded: simulated C-41 cell growth
C-41 cell growth / proliferation ([3]; 10 ng/ml): not
C-41 cell growth / proliferation ([3]; 100 ng/ml): significant increased growth; also recorded: simulated C-41 cell growth
chemotactic response of C-41 cells [4]: typical bell-shaped chemotactic response

B4: IL-10: cytokine commonly present in a tumour, used to stimulate C41 cells (protein, UniProt P22301 19-178, looked up)
Interleukin-10: SPGQGTQSENSCTHFPGNLPNMLRDLRDAFSRVKTFFQMKDQLDNLLLKESLLEDFKGYLGCQALSEMIQFYLEEVMPQAENQDPDIKAHVNSLGENLKTLRLRLRRCHRFLPCENKSKAVEQVKNAFNKLQEKGIYKAMSEFDIFINYIEAYMTMKIRN
influence on CCR4 expression [1]: None of these influenced CCR4 expression
CCR4 expression on C41 cells after cytokine stimulation [2]: upregulated in terms of percentage of positive cells

B5: IFN-γ: cytokine known to be present in the cervical microenvironment (protein, UniProt P01579 24-161, looked up)
Interferon gamma: QDPYVKEAENLKKYFNAGHSDVADNGTLFLGILKNWKEESDRKIMQSQIVSFYFKLFKNFKDDQSIQKSVETIKEDMNVKFFNSNKKKRDDFEKLTNYSVTDLNVQRKAIHELIQVMAELSPAAKTGKRKRSQMLFRG
influence on CCR4 expression [1]: None of these influenced CCR4 expression

From patent publication US10261099B2, “Cancer marker and therapeutic target” (Cancer Research Technology Ltd., priority 2007, dated 2019)
